Data set [1] concerns the target T1, VDAC of isolated rat mitochondria (liver, brain), Q9Z2L0.
T1 chain: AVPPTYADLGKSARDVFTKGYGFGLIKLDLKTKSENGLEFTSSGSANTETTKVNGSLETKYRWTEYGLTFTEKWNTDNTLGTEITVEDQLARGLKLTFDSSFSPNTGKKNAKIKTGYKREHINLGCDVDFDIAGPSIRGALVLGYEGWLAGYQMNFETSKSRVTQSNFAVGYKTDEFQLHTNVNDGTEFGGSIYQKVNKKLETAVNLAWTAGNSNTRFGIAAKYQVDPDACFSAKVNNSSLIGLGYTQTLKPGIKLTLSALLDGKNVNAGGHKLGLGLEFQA

Data set [2] deals with T2, native mVDAC1 (mouse VDAC1), purified recombinant.
T2 chain: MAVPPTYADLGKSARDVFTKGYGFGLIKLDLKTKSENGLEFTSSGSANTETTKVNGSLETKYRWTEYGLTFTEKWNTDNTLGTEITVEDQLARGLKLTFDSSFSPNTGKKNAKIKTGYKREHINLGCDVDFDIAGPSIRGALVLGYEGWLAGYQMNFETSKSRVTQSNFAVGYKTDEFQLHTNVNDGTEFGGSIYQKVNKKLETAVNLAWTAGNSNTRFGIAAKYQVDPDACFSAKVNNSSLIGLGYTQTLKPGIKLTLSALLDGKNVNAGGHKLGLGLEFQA

Data set [3] has as its target E72Q-mVDAC1, purified recombinant.

B1: chymotrypsin-treated HK-I (protein)
chain: FTELKDDQVKKIDKYLYAMRLSDEILIDILTRFKKEMKNGLSRDYNPTASVKMLPTFVRSIPDGSEKGDFIALDLGGSSFRILRVQVNHEKNQNVSMESEIYDTPENIVHGSGTQLFDHVADCLGDFMEKKKIKDKKLPVGFTFSFPCRQSKIDEAVLITWTKRFKASGVEGADVVKLLNKAIKKRGDYDANIVAVVNDTVGTMMTCGYDDQQCEVGLIIGTGTNACYMEELRHIDLVEGDEGRMCINTEWGAFGDDGSLEDIRTEFDRELDRGSLNPGKQLFEKMVSGMYMGELVRLILVKMAKEGLLFEGRITPELLTRGKFNTSDVSAIEKDKEGIQNAKEILTRLGVEPSDVDCVSVQHICTIVSFRSANLVAATLGAILNRLRDNKGTPRLRTTVGVDGSLYKMHPQYSRRFHKTLRRLVPDSDVRFLLSESGTGKGAAMVTAVAYRLAEQHRQIEETLAHFRLSKQTLMEVKKRLRTEMEMGLRKETNSKATVKMLPSFVRSIPDGTEHGDFLALDLGGTNFRVLLVKIRSGKKRTVEMHNKIYSIPLEIMQGTGDELFDHIVSCISDFLDYMGIKGPRMPLGFTFSFPCHQTNLDCGILISWTKGFKATDCEGHDVASLLRDAVKRREEFDLDVVAVVNDTVGTMMTCAYEEPTCEIGLIVGTGTNACYMEEMKNVEMVEGNQGQMCINMEWGAFGDNGCLDDIRTDFDKVVDEYSLNSGKQRFEKMISGMYLGEIVRNILIDFTKKGFLFRGQISEPLKTRGIFETKFLSQIESDRLALLQVRAILQQLGLNSTCDDSILVKTVCGVVSKRAAQLCGAGMAAVVEKIRENRGLDHLNVTVGVDGTLYKLHPHFSRIMHQTVKELSPKCTVSFLLSEDGSGKGAALITAVGVRLRGDPSIA
For the protein B1, the “PTP opening (swelling of energized mitochondria)” value in data set [1] is reported as “The failure of non-binding species of HK, such as yeast HK, or trypsin- or chymotrypsin-treated HK-I (FIG. 2D) to prevent PTP opening”.

B2: Rat brain HK-I (hexokinase-I), purified (protein)
chain: MIAAQLLAYYFTELKDDQVKKIDKYLYAMRLSDEILIDILTRFKKEMKNGLSRDYNPTASVKMLPTFVRSIPDGSEKGDFIALDLGGSSFRILRVQVNHEKNQNVSMESEIYDTPENIVHGSGTQLFDHVADCLGDFMEKKKIKDKKLPVGFTFSFPCRQSKIDEAVLITWTKRFKASGVEGADVVKLLNKAIKKRGDYDANIVAVVNDTVGTMMTCGYDDQQCEVGLIIGTGTNACYMEELRHIDLVEGDEGRMCINTEWGAFGDDGSLEDIRTEFDRELDRGSLNPGKQLFEKMVSGMYMGELVRLILVKMAKEGLLFEGRITPELLTRGKFNTSDVSAIEKDKEGIQNAKEILTRLGVEPSDVDCVSVQHICTIVSFRSANLVAATLGAILNRLRDNKGTPRLRTTVGVDGSLYKMHPQYSRRFHKTLRRLVPDSDVRFLLSESGTGKGAAMVTAVAYRLAEQHRQIEETLAHFRLSKQTLMEVKKRLRTEMEMGLRKETNSKATVKMLPSFVRSIPDGTEHGDFLALDLGGTNFRVLLVKIRSGKKRTVEMHNKIYSIPLEIMQGTGDELFDHIVSCISDFLDYMGIKGPRMPLGFTFSFPCHQTNLDCGILISWTKGFKATDCEGHDVASLLRDAVKRREEFDLDVVAVVNDTVGTMMTCAYEEPTCEIGLIVGTGTNACYMEEMKNVEMVEGNQGQMCINMEWGAFGDNGCLDDIRTDFDKVVDEYSLNSGKQRFEKMISGMYLGEIVRNILIDFTKKGFLFRGQISEPLKTRGIFETKFLSQIESDRLALLQVRAILQQLGLNSTCDDSILVKTVCGVVSKRAAQLCGAGMAAVVEKIRENRGLDHLNVTVGVDGTLYKLHPHFSRIMHQTVKELSPKCTVSFLLSEDGSGKGAALITAVGVRLRGDPSIA
Turning to B2, the “VDAC1 channel closure in a planar lipid bilayer (currents before and 5 min after HK-I, 28.6 mU/ml)” value in data set [2] is on record as “HK-I is able to close native VDAC1”. For the same protein, the “VDAC1 channel closure in a planar lipid bilayer (currents before and 5 min after HK-I, 28.6 mU/ml)” value in data set [3] is “HK-I is able to close native VDAC1 but not mutated E72Q-VDAC1 (SEQ ID NO:43)”. In data set [1], the “PTP opening (Ca2+ accumulation and swelling of energized mitochondria)” value is “HK-I inhibited PTP opening”; the “release of cytochrome c from mitochondria (Western blot)” value is “HK-I prevented the release of cytochrome c from mitochondria”.

B3: trypsin-treated HK-I (protein)
chain: MIAAQLLAYYFTELKDDQVKKIDKYLYAMRLSDEILIDILTRFKKEMKNGLSRDYNPTASVKMLPTFVRSIPDGSEKGDFIALDLGGSSFRILRVQVNHEKNQNVSMESEIYDTPENIVHGSGTQLFDHVADCLGDFMEKKKIKDKKLPVGFTFSFPCRQSKIDEAVLITWTKRFKASGVEGADVVKLLNKAIKKRGDYDANIVAVVNDTVGTMMTCGYDDQQCEVGLIIGTGTNACYMEELRHIDLVEGDEGRMCINTEWGAFGDDGSLEDIRTEFDRELDRGSLNPGKQLFEKMVSGMYMGELVRLILVKMAKEGLLFEGRITPELLTRGKFNTSDVSAIEKDKEGIQNAKEILTRLGVEPSDVDCVSVQHICTIVSFRSANLVAATLGAILNRLRDNKGTPRLRTTVGVDGSLYKMHPQYSRRFHKTLRRLVPDSDVRFLLSESGTGKGAAMVTAVAYRLAEQHRQIEETLAHFRLSKQTLMEVKKRLRTEMEMGLRKETNSKATVKMLPSFVRSIPDGTEHGDFLALDLGGTNFRVLLVKIRSGKKRTVEMHNKIYSIPLEIMQGTGDELFDHIVSCISDFLDYMGIKGPRMPLGFTFSFPCHQTNLDCGILISWTKGFKATDCEGHDVASLLRDAVKRREEFDLDVVAVVNDTVGTMMTCAYEEPTCEIGLIVGTGTNACYMEEMKNVEMVEGNQGQMCINMEWGAFGDNGCLDDIRTDFDKVVDEYSLNSGKQRFEKMISGMYLGEIVRNILIDFTKKGFLFRGQISEPLKTRGIFETKFLSQIESDRLALLQVRAILQQLGLNSTCDDSILVKTVCGVVSKRAAQLCGAGMAAVVEKIRENRGLDHLNVTVGVDGTLYKLHPHFSRIMHQTVKELSPKCTVSFLLSEDGSGKGAALITAVGVRLRGDPSIA
As to B3, the “PTP opening (swelling of energized mitochondria)” value in data set [1] is on record as “The failure of non-binding species of HK, such as yeast HK, or trypsin- or chymotrypsin-treated HK-I (FIG. 2D) to prevent PTP opening”.

For the origin of these results see patent publication US20120214741.
